Herceptin scFv antibody recovery rate data for 2 molecules are collected here from patent WO2013125221A1.

The target of test [1] is Herceptin scFv antibody (His-tagged, self-prepared). Briefly: peptide magnetic bead immunoprecipitation, SDS-PAGE / anti-His blot, band intensity semi-quantified.
The target is the same in test [2]. Kind of test: peptide magnetic bead immunoprecipitation, SDS-PAGE / anti-His blot, semi-quantitative.

Where no end group is shown, it is not given here.

FHRSHWYQTWVP (also: biotinylated (site not given here)) [code 166 peptide] displayed a Herceptin scFv antibody recovery rate in test [1] of 30%.
Regarding WSEYDIPTPQIP (also: biotinylated (site not given here)) [code 4 peptide], the figures for the Herceptin scFv antibody recovery rate in test [2] and in test [1] were 23% and 30%, respectively.
